From patent US20200062804A1 (ADRX, published 2020)
“And” between values parts separate entries of the source, which are not always exact repeats. Equal entries are not always repeated. Non-standard residues stand in square brackets, D forms with d. No end group written: not given here. hArg = N=C(N)NCCCC[C@H](N)C(=O)O; NMeK = CN[C@@H](CCCCN)C(=O)O; Phg = N[C@H](C(=O)O)c1ccccc1

Target: T1, Nat1 (LTIITLE) (also: TFA salt)
T1 peptide: LTIITLE
Assay: cell-based or functional assay

For [dR][dW][dM][dY][dW][dQ][dR] [rwmywqr], the “IC50, Thiofiavin T aggregation assay” value was 216 nM.

For [dR][dQ][dH][dY][dR][dW][dR] [rqhyrwr], the “IC50, Thiofiavin T aggregation assay” value was 210 nM.

WTRITLK was tested, and the “IC50, Thiofiavin T aggregation assay” value was 222 nM.

With IRI[hArg]RYR [Ile-Arg-Ile-homoArg-Arg-Tyr-Arg] the “IC50, Thiofiavin T aggregation assay” value was 40 nM.

WTIRYYK was tested, and the “IC50, Thiofiavin T aggregation assay” value was 203 nM.

In the case of LRIRYWK, the “IC50, Thiofiavin T aggregation assay” value is reported as 36 nM.

With [dY][dQ][dY][dY][dY][dQ][dR] [yqyyyqr] the “IC50, Thiofiavin T aggregation assay” value was 118 nM.

With [dF][dF][dR][dF][dH][dH][dR] [ffrfhhr] the “IC50, Thiofiavin T aggregation assay” value was 151 nM.

For LRIRHYT, the “IC50, Thiofiavin T aggregation assay” value was 182 nM.

[dQ][dF][dR][dM][dH][dH][dR] [qfrmhhr] was tested, and the “IC50, Thiofiavin T aggregation assay” value was 181 nM.

For LFIKYHR, the “IC50, Thiofiavin T aggregation assay” value was 210 nM.

For LAIKYHR, the “IC50, Thiofiavin T aggregation assay” value was 220 nM.

LRLRHYR was tested, and the “IC50, Thiofiavin T aggregation assay” value was 146 nM.

In the case of IRLRRYR, the “IC50, Thiofiavin T aggregation assay” value is reported as 153 nM.

LRIYHHK was tested, and the “IC50, Thiofiavin T aggregation assay” value was 152 nM.

IRIRRAR was tested, and the “IC50, Thiofiavin T aggregation assay” value was 37 nM.

With LYIRLTH the “IC50, Thiofiavin T aggregation assay” value was 192 nM.

With ARIRRYR the “IC50, Thiofiavin T aggregation assay” value was 144 nM.

In the case of [dF][dW][dR][dW][dH][dR][dR] [fwrwhrr], the “IC50, Thiofiavin T aggregation assay” value is reported as 147 nM and 164 nM.

For [dR][dL][dH][dW][dK][dH][dH] [rlhwkhh], the “IC50, Thiofiavin T aggregation assay” value was 215 nM.

In the case of [dQ][dI][dR][dY][dF][dR][dR] [qiryfrr], the “IC50, Thiofiavin T aggregation assay” value is reported as 167 nM.

With IRIRHYRP the “IC50, Thiofiavin T aggregation assay” value was 142 nM.

LYIKYHR was tested, and the “IC50, Thiofiavin T aggregation assay” value was 148 nM.

In the case of [dH][dQ][dR][dY][dY][dW][dR] [hqryywr], the “IC50, Thiofiavin T aggregation assay” value is reported as 138 nM.

With IRIRRY the “IC50, Thiofiavin T aggregation assay” value was 205 nM.

With [dR][dW][dH][dW][dH][dW][dR] [rwhwhwr] the “IC50, Thiofiavin T aggregation assay” value was 145 nM.

In the case of [dL][dW][dR][dW][dY][dR][dR] [lwrwyrr], the “IC50, Thiofiavin T aggregation assay” value is reported as 194 nM.

With LRI[NMeK]YHR [LRI(N-Me)KYHR] the “IC50, Thiofiavin T aggregation assay” value was 125 nM.

[dH][dW][dR][dW][dY][dW][dK] [hwrwywk] was tested, and the “IC50, Thiofiavin T aggregation assay” value was 159 nM.

For [dF][dW][dR][dW][dA][dR][dR] [fwrwarr], the “IC50, Thiofiavin T aggregation assay” value was 176 nM.

[dS][dW][dW][dF][dR][dH][dR] [swwfrhr] was tested, and the “IC50, Thiofiavin T aggregation assay” value was 187 nM.

With [dY][dQ][dW][dR][dY][dR][dR] [yqwryrr] the “IC50, Thiofiavin T aggregation assay” value was 191 nM.

For [dH][dW][dR][dY][dH][dR][dR] [hwryhrr], the “IC50, Thiofiavin T aggregation assay” value was 139 nM.

For [dR][dW][dR][dW][dH][dH][dR] [rwrwhhr], the “IC50, Thiofiavin T aggregation assay” value was 156 nM.

For FRIRRYR, the “IC50, Thiofiavin T aggregation assay” value was 185 nM.

LYIRYTH was tested, and the “IC50, Thiofiavin T aggregation assay” value was 180 nM.

With [dY][dQ][dY][dY][dF][dW][dR] [yqyyfwr] the “IC50, Thiofiavin T aggregation assay” value was 181 nM.

With LYIRTLH the “IC50, Thiofiavin T aggregation assay” value was 203 nM.

In the case of IR[Phg]RRYR [Ile-Arg-Phg-Arg-Arg-Tyr-Arg], the “IC50, Thiofiavin T aggregation assay” value is reported as 124 nM.

In the case of LTIRLWH, the “IC50, Thiofiavin T aggregation assay” value is reported as 198 nM.

With [dF][dW][dR][dW][dH][dR][dA] [fwrwhra] the “IC50, Thiofiavin T aggregation assay” value was 228 nM.

For [dR][dQ][dW][dY][dH][dW][dR] [rqwyhwr], the “IC50, Thiofiavin T aggregation assay” value was 132 nM.

[dR][dI][dH][dY][dF][dR][dR] [rihyfrr] was tested, and the “IC50, Thiofiavin T aggregation assay” value was 43 nM.

With YRLRYVR the “IC50, Thiofiavin T aggregation assay” value was 175 nM.

In the case of [dH][dL][dR][dY][dH][dR][dK] [hlryhrk], the “IC50, Thiofiavin T aggregation assay” value is reported as 192 nM.

For [dR][dW][dR][dI][dL][dQ][dK] [rwrilqk], the “IC50, Thiofiavin T aggregation assay” value was 199 nM.

In the case of TRIYRYK, the “IC50, Thiofiavin T aggregation assay” value is reported as 213 nM.

With YTRITYH the “IC50, Thiofiavin T aggregation assay” value was 150 nM.
